Source: patent US20220332804A1 (CSL INNOVATION, published 2022)

Key:
human complement C2 [1] = biological target: T1, human complement C2 (human, UniProt P06681 21-752); assay: cell-based or functional assay
T1 sequence: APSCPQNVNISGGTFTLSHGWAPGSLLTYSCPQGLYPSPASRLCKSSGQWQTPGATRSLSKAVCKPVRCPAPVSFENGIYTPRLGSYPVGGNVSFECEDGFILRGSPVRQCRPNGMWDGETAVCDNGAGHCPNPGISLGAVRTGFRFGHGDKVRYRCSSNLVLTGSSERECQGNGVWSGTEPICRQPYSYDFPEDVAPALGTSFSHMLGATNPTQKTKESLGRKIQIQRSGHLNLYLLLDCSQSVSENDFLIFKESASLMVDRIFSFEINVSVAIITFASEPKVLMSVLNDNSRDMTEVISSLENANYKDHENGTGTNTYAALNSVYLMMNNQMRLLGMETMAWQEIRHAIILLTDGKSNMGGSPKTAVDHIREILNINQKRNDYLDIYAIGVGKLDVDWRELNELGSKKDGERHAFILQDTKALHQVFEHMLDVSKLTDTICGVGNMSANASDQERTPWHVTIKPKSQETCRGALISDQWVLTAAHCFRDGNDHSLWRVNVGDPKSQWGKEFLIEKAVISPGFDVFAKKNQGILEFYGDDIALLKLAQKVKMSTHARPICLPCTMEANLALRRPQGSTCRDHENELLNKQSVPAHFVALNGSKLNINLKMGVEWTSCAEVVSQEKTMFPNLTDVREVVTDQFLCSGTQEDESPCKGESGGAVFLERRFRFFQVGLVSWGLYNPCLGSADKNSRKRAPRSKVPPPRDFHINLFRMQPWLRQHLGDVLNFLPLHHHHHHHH

cynomolgus monkey C2 [2] = biological target: T2, cynomolgus monkey C2 (cynomolgus monkey, UniProt G8F3W0 21-752); assay: cell-based or functional assay
T2 sequence: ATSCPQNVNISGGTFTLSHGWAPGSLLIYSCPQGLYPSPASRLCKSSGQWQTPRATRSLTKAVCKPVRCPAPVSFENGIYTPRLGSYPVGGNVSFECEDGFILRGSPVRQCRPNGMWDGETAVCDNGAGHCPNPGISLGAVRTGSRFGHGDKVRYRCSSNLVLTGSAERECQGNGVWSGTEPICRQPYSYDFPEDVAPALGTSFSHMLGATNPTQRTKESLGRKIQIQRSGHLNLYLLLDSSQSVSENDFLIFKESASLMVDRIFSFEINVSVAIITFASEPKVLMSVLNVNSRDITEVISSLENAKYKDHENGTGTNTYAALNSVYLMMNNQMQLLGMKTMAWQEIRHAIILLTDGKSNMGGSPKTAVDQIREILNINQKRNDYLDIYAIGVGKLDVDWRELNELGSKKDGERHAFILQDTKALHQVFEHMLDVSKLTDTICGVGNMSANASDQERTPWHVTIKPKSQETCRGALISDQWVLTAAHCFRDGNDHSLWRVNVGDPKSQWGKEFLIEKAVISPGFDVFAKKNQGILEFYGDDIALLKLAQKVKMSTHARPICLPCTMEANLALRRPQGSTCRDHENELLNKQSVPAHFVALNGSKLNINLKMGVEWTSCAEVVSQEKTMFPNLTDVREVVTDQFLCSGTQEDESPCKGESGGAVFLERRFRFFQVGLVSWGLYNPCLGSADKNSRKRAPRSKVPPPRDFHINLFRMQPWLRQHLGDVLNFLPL

human complement C2 [3] = biological target: T1, human complement C2; assay: cell-based or functional assay; remark: listed apart in the source
cynomolgus monkey C2 [4] = biological target: T2, cynomolgus monkey C2; assay: cell-based or functional assay; remark: listed apart in the source
cynomolgus monkey C2 [5] = biological target: T2, cynomolgus monkey C2; assay: SPR, mAb captured, cyno C2 analyte, pH 6.0
Procedure: (§1) Surface plasmon resonance (SPR, Biacore) was used for all binding affinity analyses. In brief, goat anti-human IgG was directly immobilised onto the carboxymethyl dextran surface of CM5 sensorchips to approximately 12,000 RU using standard NHS/EDC chemistry at pH 5. The immobilised antibody surface was pre-conditioned with ten injections of polyclonal human IgG (Privigen 60 s) prepared at 1 μg/mL. Ligands (anti-C2 mAbs) were captured at the beginning of each cycle as described below. An adjacent spot or flow cell in which only Polyclonal IgG was capture was used as a reference surface. The goat anti-human IgG Fc antibody surface was regenerate in 100 mM H3PO4, injected for 45 seconds at the end of each cycle. Experiments were performed at 37° C. and the flow rate of each experiment was kept constant at 30 μL/min.
(§2) In addition to human C2, the pH dependent anti-C2 antibodies were also tested for their ability to bind to C2 from other mammalian species using the SPR methods described above in order to identify suitable surrogate species for in vivo testing. The antibodies were tested for binding at neutral pH against C2 from cynomolgus monkeys, mice, dogs, rabbits, rats, pigs, and sheep.

cynomolgus monkey C2 [6] = biological target: T2, cynomolgus monkey C2; assay: SPR, mAb captured, cyno C2 analyte, pH 7.3
Procedure: as §1, §2

mouse C2 = biological target: T3, mouse C2 (mouse, UniProt P21180 19-760, limits assumed); assay: SPR, mAb captured, mouse C2 analyte, pH 7.3
T3 sequence (looked up): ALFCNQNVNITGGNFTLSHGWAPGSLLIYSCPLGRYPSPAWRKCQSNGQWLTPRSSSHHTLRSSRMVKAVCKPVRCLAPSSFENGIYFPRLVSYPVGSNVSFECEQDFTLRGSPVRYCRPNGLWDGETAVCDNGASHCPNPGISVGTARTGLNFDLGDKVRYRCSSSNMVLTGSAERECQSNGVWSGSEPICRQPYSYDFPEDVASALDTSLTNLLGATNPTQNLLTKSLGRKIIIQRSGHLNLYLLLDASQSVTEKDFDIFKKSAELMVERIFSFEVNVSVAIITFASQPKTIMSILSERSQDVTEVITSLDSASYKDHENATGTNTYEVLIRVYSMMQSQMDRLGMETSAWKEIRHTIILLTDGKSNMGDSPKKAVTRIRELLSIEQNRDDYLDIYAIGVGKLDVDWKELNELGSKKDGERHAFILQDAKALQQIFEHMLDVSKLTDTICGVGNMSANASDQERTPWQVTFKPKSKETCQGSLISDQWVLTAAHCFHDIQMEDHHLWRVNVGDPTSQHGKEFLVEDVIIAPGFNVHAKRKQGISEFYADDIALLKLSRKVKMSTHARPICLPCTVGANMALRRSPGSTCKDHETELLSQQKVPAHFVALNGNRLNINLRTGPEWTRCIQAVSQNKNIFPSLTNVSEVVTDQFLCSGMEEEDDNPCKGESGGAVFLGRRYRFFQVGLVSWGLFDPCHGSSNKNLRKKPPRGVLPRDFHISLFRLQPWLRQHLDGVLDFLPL
Procedure: as §1, §2

human complement C2 [7] = biological target: T1, human complement C2; assay: SPR, mAb captured, C2 analyte, HBS-EP, pH 6.0
Procedure: as §1
(§3) The pH dependent anti-C2 antibodies and their germlined versions were tested for their affinity to C2 at pH 7.3 (neutral pH) and pH 6.0 (early endosome pH) using the SPR methods described above in HBS-EP buffer.

human complement C2 [8] = biological target: T1, human complement C2; assay: SPR, mAb captured, C2 analyte, HBS-EP, pH 7.3
Procedure: as §1, §3

human FcRn/β2m = biological target: T4, human FcRn/β2m (human, UniProt P55899 24-297; P61769 21-119); assay: SPR, antibody immobilised, FcRn/β2m analyte, pH 6.0; pH 6.0
T4 construct: Soluble FcRn/β2m injected as analyte over immobilised antibody; also called neonatal Fc receptor
T4 sequence (P55899 24-297 limits assumed, chain 1 of 2): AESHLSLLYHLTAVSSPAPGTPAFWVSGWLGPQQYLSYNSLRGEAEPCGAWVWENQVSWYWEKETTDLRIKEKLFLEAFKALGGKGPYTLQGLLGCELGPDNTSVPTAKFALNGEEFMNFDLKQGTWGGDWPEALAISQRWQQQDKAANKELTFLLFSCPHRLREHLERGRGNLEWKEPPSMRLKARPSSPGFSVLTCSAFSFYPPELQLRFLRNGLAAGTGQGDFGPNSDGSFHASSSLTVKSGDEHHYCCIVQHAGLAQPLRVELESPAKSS
T4 sequence (P61769 21-119 limits assumed, chain 2 of 2): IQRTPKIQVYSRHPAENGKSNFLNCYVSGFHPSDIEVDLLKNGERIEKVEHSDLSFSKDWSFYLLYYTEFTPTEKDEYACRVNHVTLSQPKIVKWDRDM
Procedure: (§4) Anti-C2 mAbs (1 μg/mL at pH 5) were immobilized on a carboxylmethyldextran (CM5) sensorchip surface using standard EDC/NHS chemistry. Human and Cyno FcRn/β2m (40 μM) were prepared in running buffer (10 mM HEPES, 150 mM NaCl, 10 mM MES adjusted to either pH 6 or pH 7.3) and injected on the immobilized anti-C2 surface at concentrations ranging from 0.078 to 40 μM, prepared in two-fold dilutions in running buffer. Association and dissociation phases were monitored for 180 and 600 seconds, respectively. […] Double referenced sensorgrams were fitted to either a 1:1 kinetic model (pH 6), including a term for mass transport limitation or to a 1:1 steady state model (pH 7.3) where responses at the end of the association phase were plotted against respective concentrations.
(§5) Binding to both human and cynomolgus monkey FcRn was tested using the SPR methods described above.

[9] = biological target: T5, cynomolgus monkey FcRn/β2m (cynomolgus monkey, UniProt Q8SPV9 24-297; Q8SPW0 21-119, limits assumed); assay: SPR, immobilised antibody, cyno FcRn/b2m analyte, pH 6.0; pH 6.0
T5 construct: injected in solution over immobilised antibody; also called Cyno FcRn/β2m
T5 sequence (Q8SPV9 24-297 limits assumed, chain 1 of 2): as the sequence (P55899 24-297 limits assumed, chain 1 of 2) above, with N39D, E44Q, G99S, S189G, S190N, L217M, S269T counted along it
T5 sequence (Q8SPW0 21-119 limits assumed, chain 2 of 2): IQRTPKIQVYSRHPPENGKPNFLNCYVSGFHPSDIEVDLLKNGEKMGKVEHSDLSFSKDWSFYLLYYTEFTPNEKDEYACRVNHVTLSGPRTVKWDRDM
Procedure: as §4, §5

[10] = biological target: T6, human C2a (activated human C2) (human, UniProt P06681 244-752); assay: SPR, HBS-EP, pH 7.3, 37 C
T6 construct: the whole entry is named here; also called huC2a
T6 sequence: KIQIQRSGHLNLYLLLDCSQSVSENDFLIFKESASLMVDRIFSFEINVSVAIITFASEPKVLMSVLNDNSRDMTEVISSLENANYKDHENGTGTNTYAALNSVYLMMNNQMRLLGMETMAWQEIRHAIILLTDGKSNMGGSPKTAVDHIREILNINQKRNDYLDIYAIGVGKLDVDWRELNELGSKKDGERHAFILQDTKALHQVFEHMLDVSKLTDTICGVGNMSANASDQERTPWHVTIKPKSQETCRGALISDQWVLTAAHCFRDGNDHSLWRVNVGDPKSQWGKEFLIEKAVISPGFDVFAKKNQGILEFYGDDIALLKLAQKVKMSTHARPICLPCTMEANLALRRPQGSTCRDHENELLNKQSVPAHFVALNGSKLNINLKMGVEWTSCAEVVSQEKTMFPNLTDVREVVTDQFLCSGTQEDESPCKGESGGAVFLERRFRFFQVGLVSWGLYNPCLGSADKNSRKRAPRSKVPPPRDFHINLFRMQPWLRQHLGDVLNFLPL
Procedure: as §1
(§6) Purified human C2 zymogen and human C2a were tested at concentrations ranging from 1.9 to 500 nM while human C2b was tested at concentrations ranging from 1.9 to 1000 nM. All experiments were performed in HBS-EP buffer supplemented with 0.1% BSA at 37° C. and pH 7.3. Each antibody was tested against human C2 zymogen and human C2a in duplicate and against C2b in quadruplicate. The flow rate was set to 30 μL/min. Each analyte concentration was tested in duplicate.

human C2b = biological target: T7, human C2b (human, UniProt P06681 21-243); assay: SPR, HBS-EP, pH 7.3, 37 C
T7 construct: the whole entry is named here
T7 sequence: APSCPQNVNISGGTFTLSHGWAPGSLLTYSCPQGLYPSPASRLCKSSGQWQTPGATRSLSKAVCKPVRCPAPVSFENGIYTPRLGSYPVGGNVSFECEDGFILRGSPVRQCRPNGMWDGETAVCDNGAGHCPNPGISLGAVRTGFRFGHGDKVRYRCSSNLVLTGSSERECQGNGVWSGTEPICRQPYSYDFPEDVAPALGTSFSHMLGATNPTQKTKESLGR
Procedure: as §1, §6

[11] = biological target: T8, human complement C2 zymogen (human, UniProt P06681 21-752); assay: SPR, human C2 zymogen analyte, HBS-EP, pH 7.3, 37 C
T8 construct: also called huC2; human C2
T8 sequence: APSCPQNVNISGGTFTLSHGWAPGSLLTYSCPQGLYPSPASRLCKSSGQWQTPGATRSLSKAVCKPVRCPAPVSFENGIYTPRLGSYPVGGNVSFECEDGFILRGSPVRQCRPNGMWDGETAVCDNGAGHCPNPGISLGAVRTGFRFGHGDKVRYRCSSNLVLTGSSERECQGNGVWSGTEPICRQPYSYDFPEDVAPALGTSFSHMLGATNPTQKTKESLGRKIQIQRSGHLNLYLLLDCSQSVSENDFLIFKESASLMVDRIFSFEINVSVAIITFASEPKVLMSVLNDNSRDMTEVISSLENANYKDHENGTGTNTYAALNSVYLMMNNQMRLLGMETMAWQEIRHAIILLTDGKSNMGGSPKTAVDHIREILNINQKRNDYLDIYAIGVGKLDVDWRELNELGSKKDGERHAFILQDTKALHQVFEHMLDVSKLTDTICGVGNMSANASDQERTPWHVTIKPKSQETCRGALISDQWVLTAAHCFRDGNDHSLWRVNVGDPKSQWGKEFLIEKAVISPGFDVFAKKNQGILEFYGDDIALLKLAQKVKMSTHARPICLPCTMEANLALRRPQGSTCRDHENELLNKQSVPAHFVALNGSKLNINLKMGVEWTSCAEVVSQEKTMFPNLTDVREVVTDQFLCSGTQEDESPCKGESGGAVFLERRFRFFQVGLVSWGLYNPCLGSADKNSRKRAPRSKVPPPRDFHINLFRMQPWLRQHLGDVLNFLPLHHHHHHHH
Procedure: as §1, §6

B1: RF16-191 (antibody, V domains shown)
VH: EVQLLESGGGLVQPGGSLRLSCAASGFTFSKYWMGWVRQATGKGLEWVSSIYSSGGWTYYADSVKGRFTISRDNSKNTLYLQMNSLRAEDTAVYYCARRPRSFSGSYYRAFDIWGQGTMVTVSS
VL: DIQMTQSPSSLSASVGDRVTITCRASQSITDYLNWYQQRPGKAPKLLIYAASSLQSGVPSRFSGSGSGTDFTLTISGLQPEDFATYYCQQSYSSSITFGQGTRLDLKR
notes: Human antibody from a phage display library
IC50, inhibition of human classical complement pathway (Wieslab assay) (human complement C2 [1]): 1.09 nM
IC50, inhibition of human lectin complement pathway (Wieslab assay) (human complement C2 [1]): 0.857 nM
IC50, inhibition of cynomolgus classical complement pathway (Wieslab assay) (cynomolgus monkey C2 [2]): 11 nM
IC50, inhibition of cynomolgus lectin complement pathway (Wieslab assay) (cynomolgus monkey C2 [2]): 49.2 nM
IC50, inhibition of human classical pathway (hemolysis assay) (human complement C2 [3]): 29.4 nM
IC50, inhibition of cyno classical pathway (hemolysis assay) (cynomolgus monkey C2 [4]): 188 nM
Kd (cynomolgus monkey C2 [5]): 71.3 nM
Kd (cynomolgus monkey C2 [6]): 27.4 nM
Kd (mouse C2): 303 nM
Kd (human complement C2 [7]): 13 nM
Kd (human complement C2 [8]): 10.9 nM

B2: RF16-226 M252Y, S254T, T256E (antibody, human IgG4 S228P, lambda)
heavy: EVQLVQSGAEVKKPGESLKISCKGSGYSFTSYWIGWVRQMPGKGLEWMGIIYPGDSDTRYSPSFQGQVTISADKSISTAYLQWSSLKASDTAMYYCARRFSYSSGWDMWGQGTLVTVSSASTKGPSVFPLAPCSRSTSESTAALGCLVKDYFPEPVTVSWNSGALTSGVHTFPAVLQSSGLYSLSSVVTVPSSSLGTKTYTCNVDHKPSNTKVDKRVESKYGPPCPPCPAPEFLGGPSVFLFPPKPKDTLYITREPEVTCVVVDVSQEDPEVQFNWYVDGVEVHNAKTKPREEQFNSTYRVVSVLTVLHQDWLNGKEYKCKVSNKGLPSSIEKTISKAKGQPREPQVYTLPPSQEEMTKNQVSLTCLVKGFYPSDIAVEWESNGQPENNYKTTPPVLDSDGSFFLYSRLTVDKSRWQEGNVFSCSVMHEALHNHYTQKSLSLSLGK
light: SYELTQPPSVSVSPGQTARITCSGDALTSKYVAWYQQKSGLAPLLVIYEDTRRPSGIPAKFSGSSSGSVATLTISGAHGDDEADYYCYSTDASGHQRVFGGGTKLTVLSQPKAAPSVTLFPPSSEELQANKATLVCLISDFYPGAVTVAWKADGSPVKAGVETTKPSKQSNNKYAASSYLSLTPEQWKSHRSYSCQVTHEGSTVEKTVAPTECS
Kd (human FcRn/β2m): 680 nM

B3: RF16-226 M428L, N434A (antibody, human IgG4 S228P, lambda)
heavy: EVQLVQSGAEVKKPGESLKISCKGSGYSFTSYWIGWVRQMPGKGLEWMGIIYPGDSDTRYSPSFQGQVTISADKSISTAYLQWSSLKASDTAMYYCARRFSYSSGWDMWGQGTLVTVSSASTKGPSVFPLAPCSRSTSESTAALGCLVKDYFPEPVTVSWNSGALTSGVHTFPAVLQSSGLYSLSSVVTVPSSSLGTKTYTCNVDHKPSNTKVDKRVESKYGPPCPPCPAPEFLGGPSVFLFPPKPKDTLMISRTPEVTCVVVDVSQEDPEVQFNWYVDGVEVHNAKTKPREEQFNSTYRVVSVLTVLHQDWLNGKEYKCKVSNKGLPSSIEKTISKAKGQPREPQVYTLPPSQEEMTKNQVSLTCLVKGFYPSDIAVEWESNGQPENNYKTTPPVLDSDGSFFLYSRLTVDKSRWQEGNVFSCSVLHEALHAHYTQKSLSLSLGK
light: SYELTQPPSVSVSPGQTARITCSGDALTSKYVAWYQQKSGLAPLLVIYEDTRRPSGIPAKFSGSSSGSVATLTISGAHGDDEADYYCYSTDASGHQRVFGGGTKLTVLSQPKAAPSVTLFPPSSEELQANKATLVCLISDFYPGAVTVAWKADGSPVKAGVETTKPSKQSNNKYAASSYLSLTPEQWKSHRSYSCQVTHEGSTVEKTVAPTECS
Kd (human FcRn/β2m): 640 nM

B4: RF16-226 Fc mutant M428L, N434A (antibody, human IgG4 S228P, lambda)
heavy: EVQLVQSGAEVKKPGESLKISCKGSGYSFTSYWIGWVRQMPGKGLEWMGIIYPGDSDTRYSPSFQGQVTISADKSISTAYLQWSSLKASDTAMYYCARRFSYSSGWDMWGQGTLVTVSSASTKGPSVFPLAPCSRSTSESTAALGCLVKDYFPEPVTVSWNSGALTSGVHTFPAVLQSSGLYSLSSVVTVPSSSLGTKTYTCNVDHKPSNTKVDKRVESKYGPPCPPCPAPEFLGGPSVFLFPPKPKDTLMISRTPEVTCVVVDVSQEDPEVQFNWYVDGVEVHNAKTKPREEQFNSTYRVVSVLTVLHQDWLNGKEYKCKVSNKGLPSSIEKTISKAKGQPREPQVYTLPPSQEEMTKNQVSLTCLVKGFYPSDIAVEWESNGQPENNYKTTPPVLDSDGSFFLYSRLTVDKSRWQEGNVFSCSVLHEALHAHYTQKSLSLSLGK
light: SYELTQPPSVSVSPGQTARITCSGDALTSKYVAWYQQKSGLAPLLVIYEDTRRPSGIPAKFSGSSSGSVATLTISGAHGDDEADYYCYSTDASGHQRVFGGGTKLTVLSQPKAAPSVTLFPPSSEELQANKATLVCLISDFYPGAVTVAWKADGSPVKAGVETTKPSKQSNNKYAASSYLSLTPEQWKSHRSYSCQVTHEGSTVEKTVAPTECS
Kd [9]: 420 nM

B5: RF16-226G (antibody, human IgG4 S228P, lambda)
heavy: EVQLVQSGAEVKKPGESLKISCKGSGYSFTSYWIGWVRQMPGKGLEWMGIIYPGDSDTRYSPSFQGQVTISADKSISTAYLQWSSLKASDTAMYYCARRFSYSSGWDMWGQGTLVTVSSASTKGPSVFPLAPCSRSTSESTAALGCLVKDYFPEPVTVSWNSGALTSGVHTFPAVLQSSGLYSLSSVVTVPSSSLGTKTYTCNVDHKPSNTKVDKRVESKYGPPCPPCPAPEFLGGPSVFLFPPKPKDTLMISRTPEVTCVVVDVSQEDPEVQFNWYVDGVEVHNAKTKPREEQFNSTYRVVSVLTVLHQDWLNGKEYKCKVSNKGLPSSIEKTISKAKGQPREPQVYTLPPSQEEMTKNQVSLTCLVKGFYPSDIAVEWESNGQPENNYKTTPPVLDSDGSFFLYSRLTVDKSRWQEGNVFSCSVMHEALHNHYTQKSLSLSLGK
light: SYELTQPPSVSVSPGQTARITCSGDALTSKYVAWYQQKSGQAPVLVIYEDTRRPSGIPERFSGSSSGTMATLTISGAQVEDEADYYCYSTDASGHQRVFGGGTKLTVLGQPKAAPSVTLFPPSSEELQANKATLVCLISDFYPGAVTVAWKADSSPVKAGVETTTPSKQSNNKYAASSYLSLTPEQWKSHRSYSCQVTHEGSTVEKTVAPTECS
binding result [10]: no binding (tested: C2a tested up to 500 nM)
binding result (human C2b): no binding (tested: C2b tested up to 1000 nM)
Kd [11]: 7 nM
